Measured values from patent US8114412B2, “T. cruzi-derived neurotrophic agents and methods of use therefor” (priority 1999, dated 2012).
“Also recorded” adds a separate entry of the source.

Legend:
human Schwann cells = experiment: Serum withdrawal-induced apoptosis of immortalized human Schwann cells (DAPI); format: cell-based
Akt kinase in PC12 cells = experiment: Immunodetection of activated Akt (Ser 473) in PC12 cells; format: cell-based, rat; details: 100 ng/ml, 2, 5 or 10 minutes; phospho-Akt (Ser 473) antibody
Experimental: PC12 cells were deprived of serum for 24-48 hours, stimulated with TS, TS-F or LTR for 2, 5 or 10 minutes and immediately lysed with 2% SDS. In studies using the PI-3 kinase inhibitor, LY294002 (LY), cells were pre-treated with the inhibitor (1 μM) for 30 min prior to the addition of TS-F or TS. The proteins in the cell lysate were separated in SDS-10% polyacrylamide gels, transferred to nitrocellulose membrane (Bio-Rad) and the phosphorylated form of protein kinase Akt was detected with phospho-Akt (Ser 473) antibody (New England BioLabs, Beverly, Mass.), followed by alkaline phosphatase-conjugated secondary antibody (Promega, Madison, Wis.). Bands corresponding to phospho-Akt (60 kDa) were quantified using a scanning densitometer (Bio-Rad).

N18 cells = experiment: Neurite outgrowth assay in N18 cells; format: cell-based; details: immobilized proteins coated at 500 μg/ml, 17 hours (FIG. 3A)
Experimental: FIG. 3A is a graph showing that neurite outgrowth in N18 cells is induced by immobilized laminin (Ln), immobilized TS and immobilized fragments of TS. Proteins were immobilized by incubating plates which contained wells filled with solutions of the proteins (protein concentration was 500 μg/ml) at 4° C. overnight. The protein solutions were removed and the plates were further incubated with 1% BSA at room temperature for one hour. N18 cells were cultured in the coated wells in serum-free RPMI-1640/0.2% BSA for 17 hours, and neurite outgrowth was measured by phase-contrast microscopy. […] Ln, laminin; TS, purified T. cruzi trans-sialidase; 7F, recombinant TS from clone 7F; 19Y, recombinant TS from clone 19Y; TS-F, recombinant fragment consisting of amino acid residues 33-666 of TS (SEQ ID NO:2); TS-CC-47, recombinant fragment consisting of amino acid residues 79-478 of TS (SEQ ID NO:2); TS-Cat-47, recombinant fragment consisting of amino acid residues 79-415 of TS (SEQ ID NO:2); BSA, bovine serum albumin.
96-well microtiter plates were coated overnight at 4° C. with the TS or peptides or fragments thereof, or with control proteins laminin (Ln) or bovine serum albumin (BSA) at 500 μg/ml. After removing the compounds, the plates were further incubated with 1% BSA for 1 hour at room temperature and immediately used as substratum for PC12 or N18 (Prasad, K. N., Biol Rev Camb Philos Soc, 66:431-451 (1991)) cells in serum-free RPMI/0.2% BSA. Neurite outgrowth was measured using a phase-contrast microscope 17 hours later.

PC12 cells = experiment: Trophic factor withdrawal-induced apoptosis of PC12 cells (DAPI/TUNEL); format: cell-based, rat; details: serum-free RPMI-1640/0.2% BSA, 17 hours, DAPI or TUNEL
How it was run: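 PC12 cells were washed and plated at 2×10^5/ml in serum-free RPMI/0.2% BSA on collagen, with or without test agents. Apoptosis was scored by DAPI nuclear staining (300-400 cells counted) or TUNEL. Protection was calculated as 100% − (apoptosis% with agent ÷ apoptosis% in RPMI alone)×100%; wortmannin or LY294002 was added after 24 h, with DAPI read 24 h later.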

[1] = tested on: human bladder carcinoma T-24 cell line; experiment: IL-6 secretion by T-24 carcinoma cells (ELISA); format: cell-based; details: 24 hours culture

B1: TS-F: recombinant full catalytic domain of TS, amino acid residues 33-666, His-tagged, expressed in E. coli (protein, listed as Trypanosoma cruzi)
chain: ETQIAIKNSRVSSVSRVVDPTVIVKGNKLYVLVGSYYSSRSYWSSHGDARDWDILLAVGEVTKSTAGGKITASIKWGSPVSLKKFFPAEMEGMHTNQFLGGAGVAIVASNGNLVYPVQVTNKRKQVFSKIFYSEDDGKTWKFGKGRSDFGCSEPVALEWEGKLIINTRVDWKRRLVYESSDMEKPWVEAVGTVSRVWGPSPKSNQPGSQTSFTAVTIEGMRVMLFTHPLNFKGRCVRDRLNLWLTDNQRIYNVGQVSIGDENSAYSSVLYKDDKLYCLHEINTDEVYSLVFARLVGELRIIKSVLRSWKNWTATCPAFAPLLIQPLRRQRVVVVPLSPRLVLLAFCRQRLPKRMGGSYRCVNASTANAERVRNGLKFAGVGGGALWPVSQQGQNQRYRFANHAFTLVASVTIHEAPRAASPLLGASLDSSGGKKLLGLSYDEKHQWQPIYGSTPVTPTGSWETGKRYHLVLTMANKIGSVYIDGELLEGSGQTVVPDGRTPDISHFYVGGYKRSDMPTISHVTVNNVLLYNRRQLNTEEIRTLFLSQDLIGTEAHMDSSSDSSAHSTPSTPADSSAHSTPSTPVDSSAHSTPSTPADSSAHGTPSTPVDSSAHGTPSTPADSSAHGTPSTPVDS
modifications: His tag
notes: recombinant full catalytic domain of TS, amino acid residues 33-666, His-tagged, expressed in E. coli
- fragmented nuclei in serum-starved Schwann cells transfected with empty vector (neo) (human Schwann cells; CD 500 ng/ml): decreased the number of fragmented nuclei by about ten-fold
- survival of Schwann cells transfected with PTEN mutant pG129R (human Schwann cells; CD 500 ng/ml): did not detectably enhance
- protection of Schwann cells from apoptosis compared with 2% serum (human Schwann cells; CD 500 ng/ml (6 nM) in serum-free DMEM, 72 hours, listed as CD): nearly as effective as 2% serum
- survival of control Schwann cells transfected with GFP vector (human Schwann cells; CD 500 ng/ml, serum-free 48 hours): did increase survival
- survival of Schwann cells over expressing kinase-inactive Akt (AktKI) (human Schwann cells; CD 500 ng/ml, serum-free 48 hours, listed as CD): did not increase survival; also recorded: did not promote survival
- rescue from apoptosis of Schwann cells over expressing PTEN (human Schwann cells; CD 500 ng/ml, listed as CD): did not rescue cells from apoptotic death
- inhibition of serum withdrawal-induced apoptosis of human Schwann cells (human Schwann cells; serum-free DMEM, 24-72 hours, DAPI, listed as CD): protected Schwann cells against apoptosis; also recorded: protected human Schwann cells from apoptosis; also recorded: dose-dependent inhibition
- phosphorylation/activation of Akt kinase in PC12 cells (Akt kinase in PC12 cells): effective in activating Akt
- neurite outgrowth in N18 cells (N18 cells): induced neurite outgrowth to about the same extent as the intact enzyme
- protection of PC12 cells from apoptosis induced by trophic factor withdrawal (PC12 cells): survival being induced
- IL-6 secretion by T-24 cells [1]: did not promote IL-6 release
